Reference: the supplement of paper PMC10065799, “High-throughput profiling of sequence recognition by tyrosine kinases and SH2 domains using bacterial peptide display” (eLife, 2023)

Experiments:
[1] = system: AncSZ; test: phosphorylation enrichment, bacterial display (enrichment ratio); higher = better substrate or ligand; peptides without Tyr show the background
[2] = molecular target: EPHB1 (UniProt P54762); test: as above
[3] = molecular target: EPHB2 (UniProt P29323); test: as above
[4] = molecular target: FGFR1 (UniProt P11362); test: as above
[5] = molecular target: FGFR3 (UniProt P22607); test: as above
[6] = system: Fer (mouse); test: as above
[7] = molecular target: Fes (UniProt P07332); test: as above
Sequence of Fes (P07332 whole entry, looked up): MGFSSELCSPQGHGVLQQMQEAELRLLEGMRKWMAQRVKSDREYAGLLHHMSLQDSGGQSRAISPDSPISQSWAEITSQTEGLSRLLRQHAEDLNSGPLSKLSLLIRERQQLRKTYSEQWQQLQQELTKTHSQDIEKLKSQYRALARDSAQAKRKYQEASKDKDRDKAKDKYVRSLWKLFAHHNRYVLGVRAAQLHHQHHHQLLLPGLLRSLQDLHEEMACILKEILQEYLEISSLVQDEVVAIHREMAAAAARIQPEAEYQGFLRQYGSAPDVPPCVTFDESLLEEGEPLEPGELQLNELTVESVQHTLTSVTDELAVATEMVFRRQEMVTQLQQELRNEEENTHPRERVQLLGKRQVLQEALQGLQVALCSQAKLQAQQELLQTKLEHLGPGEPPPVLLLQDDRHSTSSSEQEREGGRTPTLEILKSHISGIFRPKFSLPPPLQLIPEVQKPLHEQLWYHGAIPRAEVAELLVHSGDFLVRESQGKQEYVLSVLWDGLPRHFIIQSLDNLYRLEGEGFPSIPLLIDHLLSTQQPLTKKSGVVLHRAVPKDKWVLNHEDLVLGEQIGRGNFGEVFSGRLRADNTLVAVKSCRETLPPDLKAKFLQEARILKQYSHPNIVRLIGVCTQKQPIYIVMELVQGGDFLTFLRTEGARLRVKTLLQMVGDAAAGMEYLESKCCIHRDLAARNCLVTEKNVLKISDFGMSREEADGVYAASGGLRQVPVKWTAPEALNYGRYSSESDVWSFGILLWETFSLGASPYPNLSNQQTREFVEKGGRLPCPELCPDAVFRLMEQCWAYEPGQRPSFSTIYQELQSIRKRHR

[8] = molecular target: Fyn (UniProt P06241); test: as above
Sequence of Fyn (P06241 whole entry, looked up): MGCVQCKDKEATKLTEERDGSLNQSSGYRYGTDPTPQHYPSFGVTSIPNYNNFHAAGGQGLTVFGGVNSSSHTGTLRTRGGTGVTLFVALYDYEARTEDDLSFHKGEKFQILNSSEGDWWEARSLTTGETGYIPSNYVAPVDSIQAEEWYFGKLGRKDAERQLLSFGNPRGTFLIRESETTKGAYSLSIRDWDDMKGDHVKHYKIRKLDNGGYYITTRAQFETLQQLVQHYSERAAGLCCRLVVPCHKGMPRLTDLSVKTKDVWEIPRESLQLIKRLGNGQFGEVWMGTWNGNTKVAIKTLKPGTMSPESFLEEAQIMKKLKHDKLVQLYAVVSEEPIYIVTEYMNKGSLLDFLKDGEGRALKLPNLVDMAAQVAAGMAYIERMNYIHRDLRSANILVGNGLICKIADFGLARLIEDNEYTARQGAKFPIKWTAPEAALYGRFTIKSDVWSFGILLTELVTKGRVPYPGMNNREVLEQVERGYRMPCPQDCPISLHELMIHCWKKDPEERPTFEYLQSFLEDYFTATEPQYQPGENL

[9] = molecular target: Hck (UniProt P08631); test: as above
Sequence of Hck (P08631 whole entry, looked up): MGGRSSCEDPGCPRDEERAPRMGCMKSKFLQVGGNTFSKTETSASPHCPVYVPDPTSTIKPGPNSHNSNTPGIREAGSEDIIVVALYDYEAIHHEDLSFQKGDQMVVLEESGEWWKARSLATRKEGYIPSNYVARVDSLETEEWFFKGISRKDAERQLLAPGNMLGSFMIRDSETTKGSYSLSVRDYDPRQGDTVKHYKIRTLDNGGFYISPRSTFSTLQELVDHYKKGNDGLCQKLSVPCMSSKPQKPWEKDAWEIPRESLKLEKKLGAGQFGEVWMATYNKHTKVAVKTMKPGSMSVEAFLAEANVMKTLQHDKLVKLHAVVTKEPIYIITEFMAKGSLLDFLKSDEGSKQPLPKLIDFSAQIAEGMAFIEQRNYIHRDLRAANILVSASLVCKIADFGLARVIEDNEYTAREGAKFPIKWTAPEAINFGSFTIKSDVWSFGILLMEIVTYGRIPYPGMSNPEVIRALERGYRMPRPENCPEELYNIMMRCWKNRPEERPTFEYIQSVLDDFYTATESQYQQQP

[10] = molecular target: Jak2 (UniProt O60674); test: as above
Sequence of Jak2 (O60674 whole entry, looked up): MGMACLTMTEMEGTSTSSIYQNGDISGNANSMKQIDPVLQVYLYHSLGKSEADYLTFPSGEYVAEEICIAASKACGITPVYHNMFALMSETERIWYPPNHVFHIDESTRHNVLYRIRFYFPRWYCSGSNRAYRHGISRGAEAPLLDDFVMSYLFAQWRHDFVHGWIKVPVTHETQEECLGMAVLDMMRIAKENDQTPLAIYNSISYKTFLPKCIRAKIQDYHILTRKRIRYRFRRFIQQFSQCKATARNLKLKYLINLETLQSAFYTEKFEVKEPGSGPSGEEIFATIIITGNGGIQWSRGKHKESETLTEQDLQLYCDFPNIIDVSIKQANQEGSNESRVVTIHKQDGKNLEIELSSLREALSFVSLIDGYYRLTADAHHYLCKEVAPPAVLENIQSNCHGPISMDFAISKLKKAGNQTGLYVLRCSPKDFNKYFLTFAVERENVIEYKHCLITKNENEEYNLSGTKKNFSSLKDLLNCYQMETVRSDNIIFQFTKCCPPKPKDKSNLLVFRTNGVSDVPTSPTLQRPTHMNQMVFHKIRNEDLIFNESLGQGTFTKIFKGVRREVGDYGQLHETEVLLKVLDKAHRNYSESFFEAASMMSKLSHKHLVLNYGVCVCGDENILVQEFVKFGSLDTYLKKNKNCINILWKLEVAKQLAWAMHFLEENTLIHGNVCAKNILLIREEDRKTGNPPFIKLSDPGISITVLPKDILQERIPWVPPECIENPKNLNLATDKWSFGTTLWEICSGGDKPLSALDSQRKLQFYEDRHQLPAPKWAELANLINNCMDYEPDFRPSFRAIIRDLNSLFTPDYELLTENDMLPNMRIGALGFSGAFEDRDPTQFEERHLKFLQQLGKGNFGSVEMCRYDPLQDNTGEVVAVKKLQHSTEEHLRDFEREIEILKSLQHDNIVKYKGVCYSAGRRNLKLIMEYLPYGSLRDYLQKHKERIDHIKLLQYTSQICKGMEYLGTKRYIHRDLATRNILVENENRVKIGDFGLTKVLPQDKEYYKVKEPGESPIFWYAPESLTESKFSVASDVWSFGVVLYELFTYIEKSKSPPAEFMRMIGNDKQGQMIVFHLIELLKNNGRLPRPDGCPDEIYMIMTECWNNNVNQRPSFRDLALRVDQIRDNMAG

[11] = molecular target: MERTK (UniProt Q12866); test: as above
[12] = system: c-Abl (mouse); test: as above
[13] = system: c-Src; test: as above
[14] = molecular target: Grb2 SH2 (UniProt P62993); test: SH2 binding enrichment of the phosphorylated peptide, bacterial display (enrichment ratio); higher = better substrate or ligand; peptides without Tyr show the background
[15] = molecular target: SHP2-C SH2; test: as above
[16] = molecular target: c-Src SH2; test: as above
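For SH2 binding enrichment of the phosphorylated peptide, bacterial display in this document: peptide library displayed on the E. coli surface as eCPX fusions, selected cells deep-sequenced, score is each peptide's frequency after selection divided by its frequency in the input.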
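For phosphorylation enrichment, bacterial display in this document: 11-residue human phosphosite peptides and single-mutation variants displayed on the E. coli surface, counted by deep sequencing, each peptide's frequency after selection divided by its frequency in the unselected input library; frequency after pTyr selection over input frequency; kinase dosed for 20-30% of maximal phosphorylation in three min.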

Sequence of EPHB2 (P29323 whole entry, looked up): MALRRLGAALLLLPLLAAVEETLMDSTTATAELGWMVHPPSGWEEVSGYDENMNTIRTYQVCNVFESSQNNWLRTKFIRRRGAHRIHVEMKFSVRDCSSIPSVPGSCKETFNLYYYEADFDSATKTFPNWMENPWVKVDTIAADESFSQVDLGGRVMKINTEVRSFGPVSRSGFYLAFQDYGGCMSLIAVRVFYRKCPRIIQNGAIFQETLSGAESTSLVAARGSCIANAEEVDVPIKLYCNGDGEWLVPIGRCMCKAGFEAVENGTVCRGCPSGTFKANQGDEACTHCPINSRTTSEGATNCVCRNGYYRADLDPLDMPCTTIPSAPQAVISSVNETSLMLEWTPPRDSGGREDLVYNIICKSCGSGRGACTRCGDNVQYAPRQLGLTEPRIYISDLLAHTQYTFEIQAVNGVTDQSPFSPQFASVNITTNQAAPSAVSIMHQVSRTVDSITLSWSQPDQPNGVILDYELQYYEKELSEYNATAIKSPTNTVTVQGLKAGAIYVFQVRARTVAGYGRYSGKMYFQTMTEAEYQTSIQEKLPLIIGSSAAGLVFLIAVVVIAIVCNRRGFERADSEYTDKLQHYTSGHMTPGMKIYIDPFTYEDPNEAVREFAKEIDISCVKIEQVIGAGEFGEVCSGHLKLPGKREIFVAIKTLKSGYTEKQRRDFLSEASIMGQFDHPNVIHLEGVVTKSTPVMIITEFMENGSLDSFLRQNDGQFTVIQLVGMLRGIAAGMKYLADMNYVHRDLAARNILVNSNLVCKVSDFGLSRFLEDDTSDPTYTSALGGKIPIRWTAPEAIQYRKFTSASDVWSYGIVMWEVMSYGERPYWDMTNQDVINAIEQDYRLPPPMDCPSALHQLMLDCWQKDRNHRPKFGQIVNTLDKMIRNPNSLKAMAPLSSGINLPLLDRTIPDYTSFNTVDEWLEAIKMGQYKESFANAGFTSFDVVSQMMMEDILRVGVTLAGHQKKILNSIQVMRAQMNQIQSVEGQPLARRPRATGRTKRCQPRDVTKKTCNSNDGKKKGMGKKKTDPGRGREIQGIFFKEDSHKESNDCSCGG
Sequence of EPHB1 (P54762 whole entry, looked up): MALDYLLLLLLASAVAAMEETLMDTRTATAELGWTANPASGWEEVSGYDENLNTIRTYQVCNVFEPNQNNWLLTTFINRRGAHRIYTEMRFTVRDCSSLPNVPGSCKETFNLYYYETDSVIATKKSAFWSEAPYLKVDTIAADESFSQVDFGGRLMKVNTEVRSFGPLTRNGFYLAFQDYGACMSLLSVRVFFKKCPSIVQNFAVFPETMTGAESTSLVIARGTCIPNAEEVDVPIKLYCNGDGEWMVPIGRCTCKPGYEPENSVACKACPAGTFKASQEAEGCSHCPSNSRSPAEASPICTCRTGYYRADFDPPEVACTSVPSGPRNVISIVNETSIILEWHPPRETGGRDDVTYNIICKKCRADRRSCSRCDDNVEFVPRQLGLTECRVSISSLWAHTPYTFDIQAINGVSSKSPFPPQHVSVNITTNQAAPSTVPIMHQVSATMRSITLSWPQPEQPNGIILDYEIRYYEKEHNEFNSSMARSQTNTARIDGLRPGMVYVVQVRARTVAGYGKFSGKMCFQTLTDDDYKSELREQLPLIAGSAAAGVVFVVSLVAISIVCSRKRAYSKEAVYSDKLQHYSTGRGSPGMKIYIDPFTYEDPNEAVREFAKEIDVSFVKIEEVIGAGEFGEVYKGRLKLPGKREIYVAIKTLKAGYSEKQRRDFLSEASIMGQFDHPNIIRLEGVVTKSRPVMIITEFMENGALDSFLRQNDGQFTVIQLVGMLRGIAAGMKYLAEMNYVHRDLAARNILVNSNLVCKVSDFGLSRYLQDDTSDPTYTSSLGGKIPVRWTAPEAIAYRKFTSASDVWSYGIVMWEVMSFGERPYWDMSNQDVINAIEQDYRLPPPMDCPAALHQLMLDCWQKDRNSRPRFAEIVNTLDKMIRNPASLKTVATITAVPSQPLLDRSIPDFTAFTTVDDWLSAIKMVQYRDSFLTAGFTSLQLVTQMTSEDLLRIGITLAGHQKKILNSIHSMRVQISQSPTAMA

Sequence	SH2 binding enrichment [14]	SH2 binding enrichment [15]	SH2 binding enrichment [16]	phosphorylation enrichment [1]	phosphorylation enrichment [2]	phosphorylation enrichment [3]	phosphorylation enrichment [4]	phosphorylation enrichment [5]	phosphorylation enrichment [6]	phosphorylation enrichment [7]	phosphorylation enrichment [8]	phosphorylation enrichment [9]	phosphorylation enrichment [10]	phosphorylation enrichment [11]	phosphorylation enrichment [12]	phosphorylation enrichment [13]
FEGAIYRKDIG [GART_Y417_V421I]	0.903	0.71	0.563	0.868	0.442	0.464	0.478	0.743	0.446	0.769	0.524	0.506	0.617	0.451	0.515	0.477
FFSSEYHFVGG [CTSC_Y345_YF]	0.99	1.68	0.756	2.52	3.21	3.73	14.2	10.7	0.526	0.91	2	2.44	1.95	3.31	1.71	2.94
FISLIYTNFEV [GSTP1_Y109_A114V_YF]	0.774	0.882	0.611	2.18	1.07	0.903	0.839	1.21	5.37	1.77	3.99	2.7	1.79	4.4	3.47	5.5
FKIFLYTLNDN [FN1_Y1975_YF]	0.741	0.588	0.428	1.3	0.624	0.791	0.523	0.717	0.548	1.35	0.584	0.494	1.06	0.366	0.877	0.43
FLAVGYHKPHI [IDS_Y225]	1.21	1.27	1.18	0.741	0.356	0.59	0.408	0.647	0.561	0.799	0.495	0.602	0.733	0.368	0.709	0.448
FLAVGYHKPYI [IDS_Y225_H229Y]	0.98	1.14	1.51	0.654	0.591	0.441	0.446	0.512	0.554	1.16	0.46	0.399	1.02	0.441	1.16	0.348

Further lines, with some results ahead:

SH2 binding enrichment [14]	SH2 binding enrichment [15]	SH2 binding enrichment [16]	Sequence	phosphorylation enrichment [1]	phosphorylation enrichment [2]	phosphorylation enrichment [3]	phosphorylation enrichment [4]	phosphorylation enrichment [5]	phosphorylation enrichment [6]	phosphorylation enrichment [7]	phosphorylation enrichment [8]	phosphorylation enrichment [9]	phosphorylation enrichment [10]	phosphorylation enrichment [11]	phosphorylation enrichment [12]	phosphorylation enrichment [13]
0.993	1.09	0.578	FDNPVYQKTTE [LDLR_Y828]	0.737	0.605	0.497	0.5	0.498	0.424	0.864	0.759	0.933	0.549	0.453	0.438	0.531
0.818	0.598	0.573	FEGRSYSACTT [MMP9_Y241]	0.926	0.643	0.616	0.728	0.709	0.516	1.13	0.541	0.557	0.947	0.492	0.856	0.428
0.812	0.568	0.674	FEPWVYSLSYE [PRKDC_Y647_F649L]	1.6	0.749	0.767	0.602	0.893	1.77	1.49	7.16	4.72	1.33	1.6	0.707	6.59
0.743	0.58	0.394	FGSSSYGGAGG [RPA2_Y14_YF]	0.415	0.431	0.401	0.437	0.436	0.334	0.559	0.45	0.374	0.544	0.329	0.677	0.43
0.876	0.613	0.534	FIPFRYPKEFQ [IDS_Y234_H229Y_YF]	0.705	0.316	0.494	0.465	0.516	0.323	0.883	0.469	0.469	0.548	0.409	0.595	0.565
0.823	0.465	0.642	FKDVTYLKEEK [UBE3A_Y127_T129K]	0.891	0.466	0.447	0.481	0.728	0.49	1.28	0.514	0.442	0.986	0.38	0.809	0.523
0.762	0.753	0.557	FKEDPYLVVNP [MCM6_Y810_E806K_YF]	1.19	0.441	0.617	1.02	0.89	0.531	1.12	1.06	0.718	1.13	0.449	0.815	1.98
0.941	1.43	0.914	FMRGMYFRMTD [PLA2G6_Y541_K545T_YF]	1.09	0.698	0.563	0.496	0.663	0.506	1.2	0.434	0.513	1.39	0.438	0.715	0.481
0.809	0.462	0.578	FQKNIYSEEPR [LMNA_Y211_L215P]	0.773	0.438	0.443	0.478	0.582	0.454	0.871	1.02	0.763	0.717	1.73	0.477	1.54
1.18	0.927	0.723	FRKNIYNVKST [SYNE2_Y575_YF]	0.469	0.385	0.378	0.357	0.355	0.348	0.439	0.398	0.251	0.384	0.335	0.39	0.355
